1 molecule from publication PMC12575793 can be followed below.

In this series the target is T1, C-reactive protein (CRP) (UniProt P02741 19-224).
T1 sequence: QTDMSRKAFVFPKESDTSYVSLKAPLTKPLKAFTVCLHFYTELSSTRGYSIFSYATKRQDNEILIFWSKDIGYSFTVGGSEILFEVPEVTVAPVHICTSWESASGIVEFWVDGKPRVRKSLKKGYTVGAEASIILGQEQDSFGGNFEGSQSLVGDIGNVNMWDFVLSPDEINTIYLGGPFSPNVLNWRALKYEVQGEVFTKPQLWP
In words: fluorescence recovery from graphene oxide.

B1: FAM-labeled CRP aptamer (ssDNA)
DNA: GGCAGGAAGACAAACATATAATTGAGATCGTTTGATGACTTTGTAAGAGTGTGGAATGGTCTGTGGTGCTGT
Take B1: the binding result is on record as “binds”.
